Experiment [1] has as its target T1, human CD36 (on HEK 293 or SCC25 cells) (human, UniProt P16671 2-472). The experiment is described as follows: cell-based or functional assay.
The target in experiment [2] is T2, mouse CD36 (on HEK 293 cells) (mouse, UniProt Q08857 1-472).
T2 construct: also called Murine CD36
The experiment is described as follows: FACS, HEK 293 cells transiently overexpressing CD36.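 Further: antibody binding to transfected cells detected by flow cytometry with a fluorescent anti-human secondary antibody, EC50 from a four-parameter sigmoidal fit of mean fluorescence intensity.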 On the technique in general: Flow cytometry measures light scatter and fluorescence of single cells or particles in a stream.
Protocol: (§1) After transiently transfecting the HEK 293 cells with a CD36 expression construct, cells were treated with three-fold serial dilution of each candidate antibody (10 dilutions starting at 500 nM). […] After incubation with the cells, an anti-human fluorescently labelled antibody was added to the cell media, allowed to incubate further, and the unbound antibody was washed off of the cells. Subsequently, the cells were subjected to FACS analysis to determine antibody binding to the cells. The results were fitted to a sigmoidal titration curve. Using a nonlinear regression model, the EC₅₀ values for each antibody were calculated from the GeoMFI and MFI values using the log(agonist) versus response (four parameters) fitting on the data transformed according to X=Log[X] in GraphPad PRISM.

The target in experiment [3] is T3, nonhuman primate CD36 (on HEK 293 cells) (cynomolgus monkey / rhesus macaque, UniProt P16671 2-472 (human entry)).
T3 construct: also called non-human primate CD36 (cynomolgus)
T3 sequence (P16671 other isoform, or with tags, fused parts or gaps limits assumed): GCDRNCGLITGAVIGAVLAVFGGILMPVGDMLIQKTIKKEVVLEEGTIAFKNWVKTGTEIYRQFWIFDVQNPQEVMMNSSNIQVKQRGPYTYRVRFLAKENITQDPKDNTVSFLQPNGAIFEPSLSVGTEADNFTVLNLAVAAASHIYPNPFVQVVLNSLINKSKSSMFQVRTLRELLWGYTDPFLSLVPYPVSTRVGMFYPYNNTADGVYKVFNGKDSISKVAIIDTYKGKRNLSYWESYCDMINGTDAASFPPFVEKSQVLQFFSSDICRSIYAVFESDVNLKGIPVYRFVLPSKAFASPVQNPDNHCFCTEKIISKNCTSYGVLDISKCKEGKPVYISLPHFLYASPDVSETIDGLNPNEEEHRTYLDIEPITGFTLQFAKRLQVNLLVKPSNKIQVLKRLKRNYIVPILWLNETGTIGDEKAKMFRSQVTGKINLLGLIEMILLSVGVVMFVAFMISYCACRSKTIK
Described as above.
Protocol: as §1

In experiment [4] the target is T1, human CD36 (on HEK 293 or SCC25 cells). The description is as above.
Protocol: as §1
The target is the same in experiment [5]. The experiment in a line: cell-based or functional assay. The source holds these as a separate data set.
Experiment [6] has the same target. The experiment in a line: FACS, SCC25 cells stably overexpressing human CD36.
Protocol: as §1
In experiment [7] the target is purified biotin-tagged human CD36 (human, UniProt P16671 30-439, limits assumed, biotin tag, site not stated). The experiment is described as follows: AlphaScreen competition; competitor 1G04 on acceptor beads.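 Further: streptavidin donor beads excited at 680 nm release singlet oxygen, and the light signal needs a nearby acceptor bead, with 30 min donor-bead incubation at 25 °C in the dark.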
Sequence of purified biotin-tagged human CD36 (P16671 30-439 limits assumed): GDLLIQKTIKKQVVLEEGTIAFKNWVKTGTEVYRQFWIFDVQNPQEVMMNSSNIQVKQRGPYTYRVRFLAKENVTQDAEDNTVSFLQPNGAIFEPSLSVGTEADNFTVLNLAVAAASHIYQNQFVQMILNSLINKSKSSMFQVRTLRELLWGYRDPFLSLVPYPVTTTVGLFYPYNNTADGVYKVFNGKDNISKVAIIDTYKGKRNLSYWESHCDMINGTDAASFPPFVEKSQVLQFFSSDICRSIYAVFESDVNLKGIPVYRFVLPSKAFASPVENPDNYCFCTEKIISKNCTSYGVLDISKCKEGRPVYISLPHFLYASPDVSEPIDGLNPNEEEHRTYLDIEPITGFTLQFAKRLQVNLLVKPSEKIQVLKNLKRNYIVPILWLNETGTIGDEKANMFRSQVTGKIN
The target in experiment [8] is T1, human CD36 (on HEK 293 or SCC25 cells). The experiment is described as follows: cell-based or functional assay. The source holds these as a separate data set.
The target of another experiment is T4, human CD36 (His-tagged) (human, UniProt P16671 30-439).
T4 construct: not shown: His tag
T4 sequence (P16671 30-439 limits assumed): as above
The experiment is described as follows: SPR (Biacore T200), His-captured CD36, bivalent analyte model. (In general: SPR reads the build-up and loss of mass on a sensor chip optically.)

The target in experiment [9] is T1, human CD36 (on HEK 293 or SCC25 cells). The experiment in a line: FACS, HEK 293 cells transiently overexpressing human CD36.
Protocol: After incubation with the cells, an anti-human fluorescently labelled antibody was added to the cell media, allowed to incubate further, and the unbound antibody was washed off of the cells. Subsequently, the cells were subjected to FACS analysis to determine antibody binding to the cells. The results were fitted to a sigmoidal titration curve. Using a nonlinear regression model, the EC₅₀ values for each antibody were calculated from the GeoMFI and MFI values using the log(agonist) versus response (four parameters) fitting on the data transformed according to X=Log[X] in GraphPad PRISM.
After transiently transfecting the HEK 293 cells with a CD36 expression construct, cells were treated with three-fold serial dilution of each candidate antibody (10 dilutions starting at 500 nM). […] Antibody binding to cells was measured by FACS as above.

T1 sequence (P16671 2-472 limits assumed): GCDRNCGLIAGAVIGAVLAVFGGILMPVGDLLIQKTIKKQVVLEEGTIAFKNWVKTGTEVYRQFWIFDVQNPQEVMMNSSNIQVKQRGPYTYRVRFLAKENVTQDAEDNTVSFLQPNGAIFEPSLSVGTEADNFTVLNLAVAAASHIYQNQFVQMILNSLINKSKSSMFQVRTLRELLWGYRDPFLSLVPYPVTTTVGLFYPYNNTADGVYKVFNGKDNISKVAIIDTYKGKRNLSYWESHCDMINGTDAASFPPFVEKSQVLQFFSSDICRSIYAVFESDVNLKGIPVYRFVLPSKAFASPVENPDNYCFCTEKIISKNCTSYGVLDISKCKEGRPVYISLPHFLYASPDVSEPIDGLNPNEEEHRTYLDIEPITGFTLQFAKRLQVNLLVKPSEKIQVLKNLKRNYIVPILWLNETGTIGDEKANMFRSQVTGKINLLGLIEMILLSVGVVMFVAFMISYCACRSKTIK
T2 sequence (Q08857 whole entry): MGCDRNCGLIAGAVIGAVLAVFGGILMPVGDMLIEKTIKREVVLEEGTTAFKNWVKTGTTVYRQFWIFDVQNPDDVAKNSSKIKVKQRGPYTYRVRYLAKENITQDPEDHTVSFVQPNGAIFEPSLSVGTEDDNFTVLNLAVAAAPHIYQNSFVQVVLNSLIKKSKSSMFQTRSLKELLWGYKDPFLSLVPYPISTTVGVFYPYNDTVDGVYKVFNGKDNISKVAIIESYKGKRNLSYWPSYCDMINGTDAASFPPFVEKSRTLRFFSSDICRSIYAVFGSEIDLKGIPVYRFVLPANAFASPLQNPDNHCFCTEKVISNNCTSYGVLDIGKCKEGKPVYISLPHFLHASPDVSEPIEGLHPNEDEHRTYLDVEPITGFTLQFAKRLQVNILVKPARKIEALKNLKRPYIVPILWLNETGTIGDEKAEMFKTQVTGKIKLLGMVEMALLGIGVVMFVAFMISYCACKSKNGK
Protocol for human CD36 (His-tagged): The binding affinity of the reported antibodies for human CD36 was also measured by surface plasmon resonance (SPR) using a Biacore T200. […] For each single-cycle experiment, human CD36 (His-tagged) was captured at low density (approximately 40 RU) and a titration of five antibody concentrations (diluted in running buffer) were injected over the captured antigen and then the dissociation of the complex was measured. A double referencing method was employed in which data from the reference surfaces where no antigen was captured (fc 1) were subtracted from the antigen bound capture surface (fc 2). Blank injections of buffer were run for every antibody titration cycle and then subtracted from analyte injection cycles, to correct for small changes in the capture surface density. Surface regeneration between cycles was performed by injecting Glycine pH 1.5 for 60 s. All analysis was performed at 20° C. in HBS-P running buffer (flow 30 μL/min), and the sample rack was kept at 6° C. during experimental runs. Data was fitted to a bivalent analyte model from which the kinetic and thermodynamic binding constants were derived.

B1: 7G04 (antibody, human IgG1, V domains shown)
VH: QVQMKESGAELVRPGASVKLSCKALGYTFTDYEIQWVKQTPVHGLEWIGGIHPGSSGIVYNQKFKGKATLTADKSSSTAYMELSSLTSEDSAVYYCTRGGGYDGAWFAYWGQGSLVTVSA
VL: ETTVTQSPASLSMAIGEKVTIRCITSTDIDDDMNWYQQKPGEPPKLLISEGNTLRPGVPSRFSSSGYGTDFVFTIENMLSEDVADYYCLQSDNLPFTFGSGTKLEIK
notes: Chimeric: mouse variable regions on human IgG1 LALA (L234A/L235A); also called 07G04; 007G04
B1: in [1], the “Percent Fatty Acid Uptake Inhibition” value turned out to be 37.4%. In addition, the EC50 in [2] was found to be 3.73 nM; in [3], 4.16 nM; in experiment [4] it was 0.48 nM; in experiment [6] it was 0.68 nM; in [7] it was 0.95 nM. In experiment [5], the “IC50 of oxLDL uptake inhibition (DiI-oxLDL, SCC25 cells)” value (“IC50 of oxLDL uptake inhibition” for short) was 0.27 nM. Further, in [8], the “IC50 of fatty acid uptake inhibition (BODIPY FL C16, HEK hCD36 cells)” value (from here on “IC50 of fatty acid uptake inhibition”) turned out to be 1 nM. In addition, in the experiment with human CD36 (His-tagged), the Kd amounted to 4.9 nM. In the experiment with human CD36 (His-tagged), this molecule registered a koff of 0.0035 s⁻¹. The same molecule showed a kon with human CD36 (His-tagged) of 710000 M⁻¹ s⁻¹.

B2: 28G04 (antibody, human IgG1, V domains shown)
VH: EVQLQQSGPELVKPGASVKISCKTSGYTFTEYTIHWVKQSHGKSLEWIGGIIPNNGGSSHKQNFKDKATLTVDKSSSTAYMELRSLTSEDSAVYYCARAGDYAFDYWGQGTTLTVSS
VL: ETTVTQSPASLSMAIGEKVTIRCITSTDIDDDMNWYQQKPGEPPKLLISEGNTLRPGVPSRFSSSGYGTDFVFTIENMLSEDVADYYCLQSGTLPFTFGSGTKLEIK
notes: Chimeric: mouse variable regions on human IgG1 LALA (L234A/L235A); also called 028G04
Regarding B2, the “Percent Fatty Acid Uptake Inhibition” value in [1] worked out at 39.7%. For the same molecule, the EC50 in [2] amounted to 8.5 nM; in [3], 7.77 nM; in experiment [4], 0.6 nM; in experiment [6], 0.95 nM; in experiment [7], 4.69 nM. In [5], the “IC50 of oxLDL uptake inhibition” value worked out at 1.67 nM. Besides, in experiment [8], the “IC50 of fatty acid uptake inhibition” value was 0.09 nM. Further, in the experiment with human CD36 (His-tagged), the Kd stood at 14 nM. This molecule yielded a koff in the experiment with human CD36 (His-tagged) of 0.013 s⁻¹. In the experiment with human CD36 (His-tagged), the kon came to 870000 M⁻¹ s⁻¹.

B3: 11G06 (antibody, human IgG1, V domains shown)
VH: EVQLQQSGAELVRPGASVTLSCKASGYRFSDYEMQWVKQTPVHGLEWIGGIDPETGGIAYNQKFKVKATLTADKSSSTAFMELRSLTSEDSAVYYCTRKLDFDYWGQGTTLTVSS
VL: ETTVTQSPASLSVATGEKVTIRCITSTDIDDDMNWYQQKPGEPPKLLISEGNTLRPGVPSRFSSSGYGTDFVFTIENMLSEDVADYYCLQSDNLPLTFGAGTKLELK
With B3, the response in [9] was half-maximal at 0.76 nM (EC50).

B4: 73G06 (antibody, human IgG1, kappa)
heavy: EVQLVQSGAEVKKPGSSVKVSCKASGYRFSDYEMQWVRQAPGQGLEWMGGIDPETGGIAYAQKFQGRVTLTADKSTSTAYMELSSLRSEDTAVYYCTRKLDFDYWGQGTLVTVSSASTKGPSVFPLAPSSKSTSGGTAALGCLVKDYFPEPVTVSWNSGALTSGVHTFPAVLQSSGLYSLSSVVTVPSSSLGTQTYICNVNHKPSNTKVDKKVEPKSCDKTHTCPPCPAPESTRGPSVFLFPPKPKDTLYITREPEVTCVVVDVSHEDPEVKFNWYVDGVEVHNAKTKPREEQYNSTYRVVSVLTVLHQDWLNGKEYKCKVSNKALPAPIEKTISKAKGQPREPQVYTLPPSRDELTKNQVSLTCLVKGFYPSDIAVEWESNGQPENNYKTTPPVLDSDGSFFLYSKLTVDKSRWQQGNVFSCSVMHEALHNHYTQKSLSLSPGK
light: ETTVTQSPAFMSATTGDKVTISCITSTDIDDDMNWYQQKPGEPPKLLISEGNTLRPGVPSRFSSSGYGTDFTFTINNIESEDAAYYYCLQSDNLPLTFGQGTKLEIKRTVAAPSVFIFPPSDEQLKSGTASVVCLLNNFYPREAKVQWKVDNALQSGNSQESVTEQDSKDSTYSLSSTLTLSKADYEKHKVYACEVTHQGLSSPVTKSFNRGEC
notes: Humanized 11G04, human IgG1 STR
B4 came in with an EC50 in experiment [9] of 0.87 nM.

B5: 74G06 (antibody, human IgG1, kappa)
heavy: QVQLVQSGAEVKKPGSSVKVSCKASGYRFSDYEMQWVRQAPGQGLEWMGGIDPETGGIAYAQKFQGRVTLTADKSTSTAYMELSSLRSEDTAVYYCTRKLDFDYWGQGTLVTVSSASTKGPSVFPLAPSSKSTSGGTAALGCLVKDYFPEPVTVSWNSGALTSGVHTFPAVLQSSGLYSLSSVVTVPSSSLGTQTYICNVNHKPSNTKVDKKVEPKSCDKTHTCPPCPAPESTRGPSVFLFPPKPKDTLYITREPEVTCVVVDVSHEDPEVKFNWYVDGVEVHNAKTKPREEQYNSTYRVVSVLTVLHQDWLNGKEYKCKVSNKALPAPIEKTISKAKGQPREPQVYTLPPSRDELTKNQVSLTCLVKGFYPSDIAVEWESNGQPENNYKTTPPVLDSDGSFFLYSKLTVDKSRWQQGNVFSCSVMHEALHNHYTQKSLSLSPGK
light: ETTVTQSPAFMSATTGDKVTISCITSTDIDDDMNWYQQKPGEPPKLLISEGNTLRPGVPSRFSSSGYGTDFTFTINNIESEDAAYYYCLQSDNLPLTFGQGTKLEIKRTVAAPSVFIFPPSDEQLKSGTASVVCLLNNFYPREAKVQWKVDNALQSGNSQESVTEQDSKDSTYSLSSTLTLSKADYEKHKVYACEVTHQGLSSPVTKSFNRGEC
notes: as for B4
With B5, the EC50 in experiment [9] is 1.1 nM.

B6: 75G06 (antibody, human IgG1, kappa)
heavy: EVQLVQSGAEVKKPGSSVKVSCKASGYRFSDYEMQWVRQAPGQGLEWMGGIDPETGGIAYAQKFQGRVTLTADKSTSTAYMELSSLRSEDTAVYYCTRKLDFDYWGQGTLVTVSSASTKGPSVFPLAPSSKSTSGGTAALGCLVKDYFPEPVTVSWNSGALTSGVHTFPAVLQSSGLYSLSSVVTVPSSSLGTQTYICNVNHKPSNTKVDKKVEPKSCDKTHTCPPCPAPESTRGPSVFLFPPKPKDTLYITREPEVTCVVVDVSHEDPEVKFNWYVDGVEVHNAKTKPREEQYNSTYRVVSVLTVLHQDWLNGKEYKCKVSNKALPAPIEKTISKAKGQPREPQVYTLPPSRDELTKNQVSLTCLVKGFYPSDIAVEWESNGQPENNYKTTPPVLDSDGSFFLYSKLTVDKSRWQQGNVFSCSVMHEALHNHYTQKSLSLSPGK
light: ETTVTQSPAFMSATPGDKVTISCITSTDIDDDMNWYQQKPGEPPKLLISEGNTLRPGVPSRFSSSGYGTDFTFTINNIESEDAAYYYCLQSDNLPLTFGQGTKLEIKRTVAAPSVFIFPPSDEQLKSGTASVVCLLNNFYPREAKVQWKVDNALQSGNSQESVTEQDSKDSTYSLSSTLTLSKADYEKHKVYACEVTHQGLSSPVTKSFNRGEC
notes: as for B4
As for B6, a half-maximal response in [9] (EC50) required 0.98 nM.

B7: 14G04 (antibody, human IgG1, V domains shown)
VH: QVQLQQSGAELVRSGASVRLSCTASGFNIKDYYIHWVKQRPEQGLEWIGWIDPENGDTEYAPRFQDKATMTADTSSNTAYLQLSSLTSEDTAVYYCNGWLLSGNGMDYWGQGTSVTVSS
VL: DIVMTQSHKFMSTSVGDRVSITCKASQDVGTAVAWYQQKPGQSPKLLIYWASTRHTGVPDRFTGSGSGTDFTLTISNVQSEDLADYFCQQYSSYPTFGGGTKLEIK
notes: Chimeric: mouse variable regions on human IgG1 LALA (L234A/L235A); also called 014G04
Take B7: the “Percent Fatty Acid Uptake Inhibition” value in experiment [1] turned out to be 45.1%. The EC50 stood at 1.57 nM in [2]; 0.88 nM in [3]; 1.47 nM in [4]; 0.41 nM in experiment [6]; 0.31 nM in [7]. The “IC50 of oxLDL uptake inhibition” value in [5] was 0.35 nM. Besides, the “IC50 of fatty acid uptake inhibition” value in [8] was determined as 0.13 nM. Also, in the experiment with human CD36 (His-tagged), the Kd is 2.3 nM. For the same molecule, the koff with human CD36 (His-tagged) was 0.0072 s⁻¹. The kon with human CD36 (His-tagged) worked out at 3.1e+06 M⁻¹ s⁻¹.

As usually defined, the EC50 is the concentration that produces a half-maximal response. One may read the koff as a measure of how fast the partners let go of each other. A word on the kon: it is the rate constant with which the complex forms.
